{"source": "paper PMC4252830", "about": "(Insect biochemistry and molecular biology, 2014)", "molecules": {"B1": {"name": "AgEH (epoxide hydrolase from Anopheles gambiae) (Anopheles gambiae) (protein)", "chain": "MIQYYVRESIQFVVSYALCLFYSCRVLFGLLVLLVTKPHTKFWATKERPVPPECLRNHEYGTDKYQNANGIRIHFVENGDRSKPLMVLVHGFPEFWFSWRHQLKEFAKDYWVVALDMRGYGDTEKPQYQYAYRIDNMTEDIRCLVRQLGRQKFTLVAHDWGAVIGWHFITKHMEMVDRYIMMDAPSQKIARKLFSTSKTQFKMSWYIFFYQMPWLPEFFVRLMDFHLFEVVFRHHGGPDVIEAFKYTFSKPHAMTYPINYYRQNFRFFTRRQMPPRPKTFAPGLYLIGEKDLYISKESGPLMQQEFENLEFRVVPGVDHFLQQHNPELVNQVMREFLSKS"}}, "key": {"[1]": {"target": "T1, AgEH (epoxide hydrolase from Anopheles gambiae) (Anopheles gambiae, UniProt Q7PZL6)", "T1 sequence (Q7PZL6 1-340)": "B1 chain", "assay": "% activity remaining on t-DPPO, recombinant AgEH in Sf-9 microsomes", "type": "cell-based", "settings": "read-out: t-DPPO / 500nM"}, "[2]": {"target": "T1, AgEH (epoxide hydrolase from Anopheles gambiae)", "assay": "inhibition of […],15-EET hydrolysis by recombinant AgEH in Sf-9 microsomes", "type": "biochemical"}, "[3]": {"substrate": "CCCCC/C=C\\CC1OC1CCCCCCCC(=O)O", "assay": "Michaelis-Menten kinetics, LC-MS/MS, recombinant AgEH in Sf-9 microsomes", "type": "biochemical, Anopheles gambiae"}, "[4]": {"substrate": "CCCCCC1OC1C/C=C\\C/C=C\\C/C=C\\CCCC(=O)O", "assay": "Michaelis-Menten kinetics, LC-MS/MS, recombinant AgEH in Sf-9 microsomes", "type": "biochemical, Anopheles gambiae"}, "[5]": {"substrate": "c1ccc(C[C@@H]2O[C@H]2c2ccccc2)cc1", "type": "biochemical, Anopheles gambiae"}, "[6]": {"substrate": "COC(=O)/C=C(\\C)CC/C=C(\\C)CC[C@H]1OC1(C)C", "type": "biochemical, Anopheles gambiae"}}}
{"molecule": "O=C(Nc1ccc(OC(F)(F)F)cc1)N[C@H]1CC[C@H](Oc2ccc(C(=O)O)cc2)CC1", "note": "[compound 2, trans-4-{4-[3-(4-trifluoromethoxy-phenyl)-ureido]-cyclohexyloxy}-benzoic acid]", "values": [{"measurement": "activity at 0.5 µM", "setting": "[1]", "result": 12.5, "unit": "%"}]}
{"molecule": "O=C(O)CCCCCCCCCCCNC(=O)NC12CC3CC(CC(C3)C1)C2", "note": "[compound 1, 12-(3-adamantan-1-yl-ureido) dodecanoic acid]", "values": [{"measurement": "IC50", "setting": "[2]", "result": "~60", "unit": "nM"}]}
{"molecule": "B1", "values": [{"measurement": "Km", "setting": "[3]", "result": "7.0 ± 0.6", "unit": "µM"}, {"measurement": "Vmax", "setting": "[3]", "result": 1.5, "unit": "µmol/min/mg"}, {"measurement": "Vmax/Km", "setting": "[3]", "result": 210000, "unit": "µL/min/mg"}, {"measurement": "Km", "setting": "[4]", "result": "3.0 ± 0.3", "unit": "µM"}, {"measurement": "Vmax", "setting": "[4]", "result": 1.4, "unit": "µmol/min/mg"}, {"measurement": "Vmax/Km", "setting": "[4]", "result": 460000, "unit": "µL/min/mg"}, {"measurement": "Km", "setting": "[5]", "result": "30.5 ± 5.0", "unit": "µM"}, {"measurement": "Vmax", "setting": "[5]", "result": 1.2, "unit": "µmol/min/mg"}, {"measurement": "Vmax/Km", "setting": "[5]", "result": 41000, "unit": "µL/min/mg"}, {"measurement": "Km", "setting": "[6]", "result": "9.8 ± 2.0", "unit": "µM"}, {"measurement": "Vmax", "setting": "[6]", "result": 1.3, "unit": "µmol/min/mg"}, {"measurement": "Vmax/Km", "setting": "[6]", "result": 130000, "unit": "µL/min/mg"}]}
